Data taken from article PMC6463862, “Adaptive and degenerative evolution of the S-Phase Kinase-Associated Protein 1-Like family in Arabidopsis thaliana” (PeerJ, 2019).

Columns and labels:
[1] = molecular target: DIF (Arabidopsis (cDNA clone from the Arabidopsis Biological Resource Center)); assay: two-hybrid; F-box proteins as GAL4-BD baits (pGBK-T7, AH109), ASK1/2 as GAL4-AD preys (pGAD-T7, Y187), mated; growth on SD-Leu-Trp-Ade-His + X-alpha-gal at 30 °C normalised to growth on SD-Leu-Trp, and beta-galactosidase activity assay (two independent assays); results told together
JMJ22 = molecular target: T1, JMJ22 (Arabidopsis (cDNA clone from the …, UniProt Q67XX3 1-502)); assay: as above; conditions: partners not purified
T1 construct: F-box protein JMJ22; CDS PCR amplified from an ABRC cDNA clone and ligated in frame to the 3' end of the GAL4-BD CDS in pGBK-T7 (bait); source: yeast two-hybrid fusion
T1 sequence (looked up): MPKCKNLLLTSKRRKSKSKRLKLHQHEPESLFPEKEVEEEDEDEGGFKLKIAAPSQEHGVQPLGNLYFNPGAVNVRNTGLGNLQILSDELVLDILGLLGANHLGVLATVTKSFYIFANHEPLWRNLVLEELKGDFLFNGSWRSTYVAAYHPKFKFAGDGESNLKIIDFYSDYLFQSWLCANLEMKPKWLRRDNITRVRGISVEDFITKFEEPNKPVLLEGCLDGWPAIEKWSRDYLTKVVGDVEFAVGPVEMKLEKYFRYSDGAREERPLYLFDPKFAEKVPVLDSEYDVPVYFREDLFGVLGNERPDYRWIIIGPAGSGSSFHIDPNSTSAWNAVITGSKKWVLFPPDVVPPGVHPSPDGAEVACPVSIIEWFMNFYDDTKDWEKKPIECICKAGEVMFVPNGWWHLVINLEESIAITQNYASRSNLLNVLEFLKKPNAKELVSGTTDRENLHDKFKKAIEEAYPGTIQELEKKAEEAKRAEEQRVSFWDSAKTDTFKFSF

fold interaction strength against ASK2 [1]: > 2 fold
fold interaction strength against ASK2 (JMJ22): > 2 fold
B1: Arabidopsis Skp1-Like 1 (natural protein, A. thaliana, UniProt Q39255 1-160, looked up)
chain: MSAKKIVLKSSDGESFEVEEAVALESQTIAHMVEDDCVDNGVPLPNVTSKILAKVIEYCKRHVEAAASKAEAVEGAATSDDDLKAWDADFMKIDQATLFELILAANYLNIKNLLDLTCQTVADMIKGKTPEEIRTTFNIKNDFTPEEEEEVRRENQWAFE
notes: ASK1 (A. thaliana Skp1-Like 1); CDS PCR amplified from an ABRC cDNA clone and ligated in frame to the 3' end of the GAL4-AD CDS in pGAD-T7 (prey); also called ASK1; source: yeast two-hybrid fusion
